Measurements: patent US6103692

Molecular target: endogenous Ras (COS cells)

## Myc-Raf (84-87A) (from UniProt P04049) (enzyme)
  EGF or PMA-stimulated activation of Raf kinase in COS cells: > 85%
